According to patent publication US6106844A, “Immunomodulatory peptides of vespid antigen 5” (The Rockfeller University, priority 1998, dated 2000):

Columns and labels:
[1] = tested on: r-Ag5 specific spleen cells from ASW/Sn mice; assay: In vitro proliferation assay, spleen cells of r-Ag5-immunized ASW/Sn mice; format: cell-based; conditions: spleen cells from mice immunized 5 times with rAg5; blank 5640 cpm
Protocol: (§1) FIG. 11. Stimulation index profile of ASW/sn mice spleens after 5 immunizations with r-Ag5. In vitro proliferation assays were performed with peptides at three concentrations: 1×10^-5 M (open bar), 1.25×10^-6 M ("uphill" hatch), and 1.56×10^-7 M ("downhill" hatch). The corresponding concentrations of recombinant Antigen 5 were 1.0×10^-6 M, 1.25×10^-7, and 1.56×10^-8 M. The blank was 5640 cpm.
The peptides of the invention can be tested in a proliferation assay for T cell responses. Generally, lymphocytes from a sensitized host are obtained. The host can be a mouse that has been immunized with a vespid venom antigen 5, or with a crossreactive protein, such as testes specific protein. Using techniques that are well known in the art, T lymphocyte response to the peptide can be measured in vitro. In a specific embodiment, infra, T cell responses are detected by measuring incorporation of ^3 H-thymidine, which increases with DNA synthesis associated with proliferation. Cell proliferation can also be detected using an MTT assay [Mossman, J. Immunol. Methods, 65:55-63,(1983); Niks and Otto, J. Immunol. Methods, 130:140-151 (1990)]. Alternatively, lymphokine production assays can be practiced according to the present invention. In one embodiment, lymphokine production can be assayed using immunological or co-stimulation assays [see, e.g., Fehlner et al., J. Immunol., 146:799 (1991)] or using the ELISPOT technique [Czerkinsky, et al., J. Immunol. Methods, 110:29 (1988)]. Alternatively, mRNA for lymphokines can be detected, e.g., by amplification [see Brenner, et al., Biotechniques, 7:1096 (1989)] or in situ hybridization [see, e.g., Kasaian and Biron, J. Immunol., 142:1287 (1989)]. Of particular interest are those individuals whose T cells produce lymphokines associated with IgE isotype switch events, e.g., IL-4 and IL-5 [Purkeson and Isakson, J. Exp. Med., 175:973-982 (1992)]. Also of interest are the peptide fragments of the vespid venom antigen 5 that contain epitopes recognized by T cells involved in IgE switch events. […]

[2] = tested on: r-Ag5 specific spleen cells from P/J mice; assay: In vitro proliferation assay, spleen cells of r-Ag5-immunized P/J mice; format: cell-based; conditions: spleen cells from mice immunized 5 times with rAg5; blank 1730 cpm
Protocol: as §1, with “12.” for “11.”, “P/J” for “ASW/sn”, “1.0 ×10^-6” for “1.0×10^-6”, “1730” for “5640”
The peptides of the invention can be tested in a proliferation assay for T cell responses. Generally, lymphocytes from a sensitized host are obtained. The host can be a mouse that has been immunized with a vespid venom antigen 5, or with a crossreactive protein, such as testes specific protein. Using techniques that are well known in the art, T lymphocyte response to the peptide can be measured in vitro. In a specific embodiment, infra, T cell responses are detected by measuring incorporation of ^3 H-thymidine, which increases with DNA synthesis associated with proliferation. Cell proliferation can also be detected using an MTT assay [Mossman, J. Immunol. Methods, 65:55-63,(1983); Niks and Otto, J. Immunol. Methods, 130:140-151 (1990)]. […] Alternatively, mRNA for lymphokines can be detected, e.g., by amplification [see Brenner, et al., Biotechniques, 7:1096 (1989)] or in situ hybridization [see, e.g., Kasaian and Biron, J. Immunol., 142:1287 (1989)]. […]

n-Dol m 5.01 = target: T1, n-Dol m 5.01 (Dolichovespula maculata, UniProt P10736); assay: Antibody response by direct ELISA of mice immunized with recombinant white faced hornet Ag5, wells coated with n-Dol m 5.01; format: in vivo; conditions: week five sera after three i.p. immunizations with rDol m 5.02 and alum
T1 construct: from tissue; host or cells: natural protein
T1 sequence (P10736 24-227): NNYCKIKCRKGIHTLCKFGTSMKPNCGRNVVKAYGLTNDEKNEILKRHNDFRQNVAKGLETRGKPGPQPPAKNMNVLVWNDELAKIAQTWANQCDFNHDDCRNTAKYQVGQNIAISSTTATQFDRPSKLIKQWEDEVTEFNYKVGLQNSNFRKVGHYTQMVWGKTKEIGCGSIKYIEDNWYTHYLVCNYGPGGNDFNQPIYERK
Protocol: Antibody response in mice of different haplotypes to recombinant hornet Ag5. Five strains of mice were immunized with recombinant (r) white faced hornet Ag5 and alum as adjuvant. […] The antibody titers (the reciprocal of the dilution yielding 50% of maximum signal extrapolated from ELISA curves in wells coated with r-Dol m 5.02 or n-Dol m 5.01) of these sera for n-(natural) and r-Ag5 are given in Table 3.
*Sera are from week five bleeding after three intraperitoneal
immunizations with 0.2 ml of 10 μg/ml rDol m 5.02 and alum (5 μg/ml
in 0.05 m sodium phosphate buffer, pH 6.2, on weeks 0, 2, and 4.

B1: r-Ag5: recombinant white faced hornet (Dolichovespula maculata) antigen 5 form 2, Dol m 5.02 (protein)
chain: NNYCKIKCSRGIHTLCKFGTSMKPNCGSKLVKVHGVSNDEKNEIVNRHNQFRQKVAKGLETRGNPGPQPPAKNMNVLVWNDELAKIAQTWANQCSFGHDQCRNTEKYQVGQNVAIASTTGNSYATMSKLIEMWENEVKDFNPKKGTMGDNNFSKVGHYTQMVWGKTKEIGCGSVKYIENNWHTHYLVCNYGPAGNYMDQPIYERK
[1]
  Stimulation Index ASW/Sn: 15.4
[2]
  Stimulation Index P/J: 20.8
n-Dol m 5.01; ASW/Sn mice (haplotype s)
  Half maximal Ab titer n-Dol m 5.01: 1 × 10^5
n-Dol m 5.01; BALB/c byj mice (haplotype d)
  Half maximal Ab titer n-Dol m 5.01: 4 × 10^4
n-Dol m 5.01; C3H/He mice (haplotype k)
  Half maximal Ab titer n-Dol m 5.01: 2 × 10^3
n-Dol m 5.01; C57B1/6 mice (haplotype b)
  Half maximal Ab titer n-Dol m 5.01: 2 × 10^1
n-Dol m 5.01; P/J mice (haplotype p)
  Half maximal Ab titer n-Dol m 5.01: 1 × 10^4
